{
  "source": "patent US20020164744A1",
  "about": "“Soluble, active recombinant human MAO-B” (priority 1999, published 2002)",
  "molecules": {"B1": {"name": "Met1-Leu498: C-terminal deletion mutant of human MAO-B-HIS6, residues Met1-Leu498 (protein, UniProt P27338 1-498, looked up, fragment)", "chain": "MSNKCDVVVVGGGISGMAAAKLLHDSGLNVVVLEARDRVGGRTYTLRNQKVKYVDLGGSYVGPTQNRILRLAKELGLETYKVNEVERLIHHVKGKSYPFRGPFPPVWNPITYLDHNNFWRTMDDMGREIPSDAPWKAPLAEEWDNMTMKELLDKLCWTESAKQLATLFVNLCVTAETHEVSALWFLWYVKQCGGTTRIISTTNGGQERKFVGGSGQVSERIMDLLGDRVKLERPVIYIDQTRENVLVETLNHEMYEAKYVISAIPPTLGMKIHFNPPLPMMRNQMITRVPLGSVIKCIVYYKEPFWRKKDYCGTMIIDGEEAPVAYTLDDTKPEGNYAAIMGFILAHKARKLARLTKEERLKKLCELYAKVLGSLEALEPVHYEEKNWCEEQYSGGCYTTYFPPGILTQYGRVLRQPVDRIYFAGTETATHWSGYMEGAVEAGERAAREILHAMGKIPEDEIWQSEPESVDVPAQPITTTFLERHLPSVPGLLRLIGL", "modifications": "His6 tag"}, "B2": {"name": "Post-Superose 6 chromatography/concentrate: recombinant human MAO-B further resolved on Superose-6 size exclusion column and concentrated (protein, UniProt P27338 2-520, looked up)", "Amine oxidase …": "SNKCDVVVVGGGISGMAAAKLLHDSGLNVVVLEARDRVGGRTYTLRNQKVKYVDLGGSYVGPTQNRILRLAKELGLETYKVNEVERLIHHVKGKSYPFRGPFPPVWNPITYLDHNNFWRTMDDMGREIPSDAPWKAPLAEEWDNMTMKELLDKLCWTESAKQLATLFVNLCVTAETHEVSALWFLWYVKQCGGTTRIISTTNGGQERKFVGGSGQVSERIMDLLGDRVKLERPVIYIDQTRENVLVETLNHEMYEAKYVISAIPPTLGMKIHFNPPLPMMRNQMITRVPLGSVIKCIVYYKEPFWRKKDYCGTMIIDGEEAPVAYTLDDTKPEGNYAAIMGFILAHKARKLARLTKEERLKKLCELYAKVLGSLEALEPVHYEEKNWCEEQYSGGCYTTYFPPGILTQYGRVLRQPVDRIYFAGTETATHWSGYMEGAVEAGERAAREILHAMGKIPEDEIWQSEPESVDVPAQPITTTFLERHLPSVPGLLRLIGLTTIFSATALGFLAHKRGLLVRV"}, "B3": {"name": "IMAC eluted/concentrate: HIS-tagged recombinant human MAO-B from yeast extract, eluted from Ni-NTA IMAC column and concentrated (protein, UniProt P27338 2-520, looked up)", "Amine oxidase …": "SNKCDVVVVGGGISGMAAAKLLHDSGLNVVVLEARDRVGGRTYTLRNQKVKYVDLGGSYVGPTQNRILRLAKELGLETYKVNEVERLIHHVKGKSYPFRGPFPPVWNPITYLDHNNFWRTMDDMGREIPSDAPWKAPLAEEWDNMTMKELLDKLCWTESAKQLATLFVNLCVTAETHEVSALWFLWYVKQCGGTTRIISTTNGGQERKFVGGSGQVSERIMDLLGDRVKLERPVIYIDQTRENVLVETLNHEMYEAKYVISAIPPTLGMKIHFNPPLPMMRNQMITRVPLGSVIKCIVYYKEPFWRKKDYCGTMIIDGEEAPVAYTLDDTKPEGNYAAIMGFILAHKARKLARLTKEERLKKLCELYAKVLGSLEALEPVHYEEKNWCEEQYSGGCYTTYFPPGILTQYGRVLRQPVDRIYFAGTETATHWSGYMEGAVEAGERAAREILHAMGKIPEDEIWQSEPESVDVPAQPITTTFLERHLPSVPGLLRLIGLTTIFSATALGFLAHKRGLLVRV", "modifications": "His tag", "notes": "HIS-tagged recombinant human MAO-B from yeast extract, eluted from Ni-NTA IMAC column and concentrated"}, "B4": {"name": "wild-type MAO-B: purified full-length recombinant human MAO-B with HIS6 tag expressed in S. cerevisiae (protein, UniProt P27338 1-520, looked up)", "chain": "MSNKCDVVVVGGGISGMAAAKLLHDSGLNVVVLEARDRVGGRTYTLRNQKVKYVDLGGSYVGPTQNRILRLAKELGLETYKVNEVERLIHHVKGKSYPFRGPFPPVWNPITYLDHNNFWRTMDDMGREIPSDAPWKAPLAEEWDNMTMKELLDKLCWTESAKQLATLFVNLCVTAETHEVSALWFLWYVKQCGGTTRIISTTNGGQERKFVGGSGQVSERIMDLLGDRVKLERPVIYIDQTRENVLVETLNHEMYEAKYVISAIPPTLGMKIHFNPPLPMMRNQMITRVPLGSVIKCIVYYKEPFWRKKDYCGTMIIDGEEAPVAYTLDDTKPEGNYAAIMGFILAHKARKLARLTKEERLKKLCELYAKVLGSLEALEPVHYEEKNWCEEQYSGGCYTTYFPPGILTQYGRVLRQPVDRIYFAGTETATHWSGYMEGAVEAGERAAREILHAMGKIPEDEIWQSEPESVDVPAQPITTTFLERHLPSVPGLLRLIGLTTIFSATALGFLAHKRGLLVRV", "modifications": "full-length His6 tag", "notes": "purified full-length recombinant human MAO-B with HIS6 tag expressed in S. cerevisiae"}},
  "key": {"recombinant human MAO-B [1]": {"system": "recombinant human MAO-B", "assay": "MAO-B activity assay (reaction velocity, specific activity, Km) with 1-methyl-4-(1-methyl-2-pyrryl)-1,2,3,6-tetrahydropyridine as substrate", "format": "biochemical", "settings": "substrate 1-methyl-4-(1-methyl-2-pyrryl)-1,2,3,6-tetrahydropyridine; purified C-terminal deletion mutants", "procedure": "(§1) The MAO-B containing solutions, including fractions isolated from chromatography columns, were assayed to measure reaction velocity. The assays were carried out in a final volume of 200 μl in 50 mM sodium phosphate, 10 mM NaCl, pH 7.5, with 0.2 mM substrate (1-methyl-4-(1-methyl-2-pyrryl)-1,2,3,6-tetrahydropyridine) as described in Flaherty, et al., J. Med. Chem., 39:4756-4761 (1996) hereby incorporated by reference. Reaction velocity was followed at an absorbence of 420 nm at 37° C. in a SpectraMax 250 96-well plate reader. Specific activity measurements were made using a Shimadzu UV-2101PC spectrophotometer equipped with a Shimadzu temperature controller (TCC-controller) set to 37° C. Protein concentrations were determined using the Bio-Rad Protein Assay kit (Bio-Rad Laboratories, Hercules, Calif.).\n(§2) Analysis of samples containing purified wild-typeMAO-B was carried out using 1-methyl-4-(1-methyl-2-pyrryl)-1,2,3,6-tetrahydropyridine as the substrate. The effect of protein concentration on activity was measured. […] The plot of MAO-B concentration vs. activity was a straight line. Variation of the substrate at a constant enzyme concentration was used to determine the Km for the substrate. […] Again, the reaction progress at each concentration of substrate was followed as straight lines with coefficients of correlation greater than 0.99.\n(§3) The activity of samples containing the purified mutant MAO-B described in Example 1 above was also analyzed using 1-methyl-4-(1-methyl-2-pyrryl)-1,2,3,6-tetrahydropyridine as the substrate. Activity was highest for wild-type MAO-B followed by the MAO-B mutant Met1-Leu498 which had approximately 10% of wild-type activity. The two remaining C-terminal deletion mutants, Met1-Val470 and Met1-Val418, had about the same activities, less than 0.1% of wild-type MAO-B activity. This confirms that deletion or truncation of the C-terminus of human MAO-B causes loss of enzymatic activity."}, "recombinant human MAO-B [2]": {"molecular_target": "T1, recombinant human MAO-B (Homo sapiens, UniProt P27338)", "T1 construct": "DNA coding for the full length and truncated C-terminal HIS tagged MAO-B proteins, as described above; made in house; host or cells: Saccharomyces cerevisiae INVSc1", "T1 sequence (P27338 1-520)": "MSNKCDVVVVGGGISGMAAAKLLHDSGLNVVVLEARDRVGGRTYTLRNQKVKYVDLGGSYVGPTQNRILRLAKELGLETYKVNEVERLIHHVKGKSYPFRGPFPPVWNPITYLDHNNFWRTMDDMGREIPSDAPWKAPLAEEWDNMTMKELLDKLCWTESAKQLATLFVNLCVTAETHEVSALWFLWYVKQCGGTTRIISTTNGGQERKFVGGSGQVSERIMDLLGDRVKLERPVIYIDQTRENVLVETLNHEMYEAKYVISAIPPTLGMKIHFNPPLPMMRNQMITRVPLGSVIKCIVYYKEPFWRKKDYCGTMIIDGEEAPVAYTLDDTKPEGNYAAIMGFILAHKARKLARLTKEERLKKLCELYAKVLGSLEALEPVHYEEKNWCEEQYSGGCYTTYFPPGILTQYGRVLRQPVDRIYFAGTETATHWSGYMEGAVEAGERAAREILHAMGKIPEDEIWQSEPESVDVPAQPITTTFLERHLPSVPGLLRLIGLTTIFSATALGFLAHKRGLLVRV", "assay": "MAO-B activity assay (reaction velocity, specific activity, Km) with 1-methyl-4-(1-methyl-2-pyrryl)-1,2,3,6-tetrahydropyridine as substrate", "format": "biochemical", "procedure": "as §1, §2, §3"}, "[3]": {"settings": "substrate 1-methyl-4-(1-methyl-2-pyrryl)-1,2,3,6-tetrahydropyridine, 37° C., fraction after purification step"}, "[4]": {"settings": "substrate 1-methyl-4-(1-methyl-2-pyrryl)-1,2,3,6-tetrahydropyridine, fraction after purification step, read-out: Km FOR SUBSTRATE"}},
  "note": "Where two headings read alike, the source gives them in different places.",
  "data": [
    {"molecule": "B1", "values": [
      {"measurement": "activity relative to wild-type MAO-B activity", "setting": "recombinant human MAO-B [1]", "value": "approximately 10%"}
    ]},
    {"molecule": "B2", "values": [
      {"measurement": "SPECIFIC ACTIVITY", "setting": "recombinant human MAO-B [2]; [3]", "value": 80.6, "unit": "nmol/min/mg"},
      {"measurement": "Km", "setting": "recombinant human MAO-B [2]; [4]", "value": 55.4, "unit": "µM"}
    ]},
    {"molecule": "B3", "values": [
      {"measurement": "SPECIFIC ACTIVITY", "setting": "recombinant human MAO-B [2]; [3]", "value": 8.7, "unit": "nmol/min/mg"},
      {"measurement": "Km", "setting": "recombinant human MAO-B [2]; [4]", "value": 71.9, "unit": "µM"}
    ]},
    {"molecule": "B4", "values": [
      {"measurement": "activity (rank among wild-type and mutants)", "setting": "recombinant human MAO-B [2]; substrate 1-methyl-4-(1-methyl-2-pyrryl)-1,2,3,6-tetrahydropyridine", "value": "highest"},
      {"measurement": "Km", "setting": "recombinant human MAO-B [2]; substrate 1-methyl-4-(1-methyl-2-pyrryl)-1,2,3,6-tetrahydropyridine varied at constant enzyme concentration, 37° C., read-out: Km for the substrate (Lineweaver Burke plot)", "value": 71.9, "unit": "µM"}
    ]}
  ]
}
